Data reported in publication PMC9300677.

Assays:
[1] = target: microtubules of Tuba4aΔpolyGlu (p/p) mice, containing mutant Tuba4a without C-terminal polyglutamylation (mouse (endogenous in hippocampal neurons and hippocampus)) (UniProt P68368); assay: soluble-tubulin extraction assay (TX-100 extraction); DIV15 hippocampal neurons extracted 90 s at 37 °C in MT-extraction buffer (80 mM PIPES pH 6.9, 0.3% Triton X-100, 150 mM NaCl); soluble and in-soluble (polymerized microtubules with associated MAPs) fractions compared by western blot
[2] = target: GSK3α (UniProt Q2NL51); assay: microtubule pelleting assay, western blot quantification; settings: re-polymerization of hippocampal tubulin from adult mice; n = 3 mice per genotype; parent: est. 0.30; read off a plot
[3] = target: GSK3β (UniProt Q9WV60); assay: as above; settings: re-polymerization of hippocampal tubulin from adult mice; n = 3 mice per genotype; parent: est. 0.40; read off a plot
[4] = target: GSK3β (UniProt Q9WV60); assay: soluble-tubulin extraction assay, western blot quantification; settings: DIV15 neurons; n = 4 independent cultures per genotype; parent: est. 1.5; read off a plot

Chain of UniProt P68368 (P68368 whole entry, looked up, stated change not applied): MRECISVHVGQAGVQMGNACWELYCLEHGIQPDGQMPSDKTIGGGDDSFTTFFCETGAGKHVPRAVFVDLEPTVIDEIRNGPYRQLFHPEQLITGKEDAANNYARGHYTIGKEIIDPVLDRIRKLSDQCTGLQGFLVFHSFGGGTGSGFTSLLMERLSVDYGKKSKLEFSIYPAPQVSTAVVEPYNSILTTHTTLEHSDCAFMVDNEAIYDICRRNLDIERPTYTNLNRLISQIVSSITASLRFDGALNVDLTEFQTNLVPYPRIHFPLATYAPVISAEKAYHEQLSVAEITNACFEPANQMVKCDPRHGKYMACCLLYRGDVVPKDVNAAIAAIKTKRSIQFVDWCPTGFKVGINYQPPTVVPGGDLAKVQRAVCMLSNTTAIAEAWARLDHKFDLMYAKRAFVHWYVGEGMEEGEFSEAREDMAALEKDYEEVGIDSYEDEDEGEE
Chain of UniProt Q9WV60 (Q9WV60 whole entry, looked up): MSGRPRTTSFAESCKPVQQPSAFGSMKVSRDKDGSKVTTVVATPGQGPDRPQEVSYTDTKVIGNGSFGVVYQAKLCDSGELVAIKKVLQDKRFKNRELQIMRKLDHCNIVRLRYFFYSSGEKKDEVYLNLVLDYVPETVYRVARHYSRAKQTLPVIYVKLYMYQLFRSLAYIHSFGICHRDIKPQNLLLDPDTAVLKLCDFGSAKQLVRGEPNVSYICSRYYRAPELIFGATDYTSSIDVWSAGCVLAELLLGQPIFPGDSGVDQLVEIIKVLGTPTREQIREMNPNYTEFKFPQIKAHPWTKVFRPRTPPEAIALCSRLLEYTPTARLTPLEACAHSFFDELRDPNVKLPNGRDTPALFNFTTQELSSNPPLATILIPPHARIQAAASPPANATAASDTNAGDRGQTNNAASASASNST
Chain of UniProt Q2NL51 (Q2NL51 whole entry, looked up): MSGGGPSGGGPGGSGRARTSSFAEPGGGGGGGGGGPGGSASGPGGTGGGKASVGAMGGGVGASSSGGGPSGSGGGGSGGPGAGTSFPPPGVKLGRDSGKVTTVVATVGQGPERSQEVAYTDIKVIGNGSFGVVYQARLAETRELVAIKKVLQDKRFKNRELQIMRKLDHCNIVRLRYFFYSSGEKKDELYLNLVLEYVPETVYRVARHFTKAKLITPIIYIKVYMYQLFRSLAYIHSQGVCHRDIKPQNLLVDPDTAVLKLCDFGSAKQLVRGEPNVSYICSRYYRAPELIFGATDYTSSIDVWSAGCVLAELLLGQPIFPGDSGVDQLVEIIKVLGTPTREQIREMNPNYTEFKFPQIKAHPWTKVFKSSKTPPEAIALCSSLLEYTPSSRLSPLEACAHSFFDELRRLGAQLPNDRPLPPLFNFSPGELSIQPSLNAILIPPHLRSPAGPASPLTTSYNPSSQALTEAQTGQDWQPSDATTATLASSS

Substance	reduction of co-occurrence with microtubules in the in-soluble fraction against wild type (+/+) [1]	other: pellet / supernatant ratio [2]	other: pellet / supernatant ratio [3]	other: in-soluble / soluble ratio [4]
MAP2a/b (from UniProt P20357 1-1828) (natural protein)	> 50%			
Tau (mouse, endogenous) (from UniProt P10637 1-733) (natural protein)	> 50%			
microtubules of wild-type (+/+) mice, containing polyglutamylated Tuba4a (from UniProt P68368;Q9ERD7) Tuba4aΔpolyGlu (p/p)		0.15	0.15	0.73
